Measured values taken from patent US20150203579A1 (Regeneron, published 2015).
Like-named read-outs stand apart in the source and are kept apart here.

T1: monkey PD-1 with mFc (monkey)
T1 construct: also called monkey PD-1-mFc; monkey PD-1 dimer
T1 chain: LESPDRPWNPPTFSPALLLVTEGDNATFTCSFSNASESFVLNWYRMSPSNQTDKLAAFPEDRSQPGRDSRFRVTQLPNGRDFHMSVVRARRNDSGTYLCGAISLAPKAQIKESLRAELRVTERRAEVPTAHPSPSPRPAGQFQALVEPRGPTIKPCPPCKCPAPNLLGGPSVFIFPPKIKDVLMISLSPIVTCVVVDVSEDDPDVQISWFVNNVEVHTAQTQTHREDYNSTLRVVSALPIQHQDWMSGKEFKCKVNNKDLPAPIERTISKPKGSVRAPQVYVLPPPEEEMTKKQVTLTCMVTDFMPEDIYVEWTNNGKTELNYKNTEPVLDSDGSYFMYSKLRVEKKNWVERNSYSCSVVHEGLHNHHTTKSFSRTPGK


Key:
[1] = biological target: PD-1 chimera: extracellular domain of human PD-1 with trans-membrane and cytoplasmic domains of human CD300a, … (human, UniProt Q9UGN4 181-299, limits assumed); assay: cell-based or functional assay
[2] = biological target: T2, full length human PD-1 on HEK293/hPD-1 cells (human, UniProt Q15116 25-288); assay: FACS, 100 nM mAb
[3] = biological target: T3, PD-1 chimera: extracellular domain of human PD-1 with trans-membrane and cytoplasmic domains of human CD300a, … (human, UniProt Q9UGN4 181-299, limits assumed); assay: cell-based or functional assay; remark: listed apart in the source
[4] = biological target: T2, full length human PD-1 on HEK293/hPD-1 …; assay: FACS, 100 nM mAb, HEK293/hPD-1 cells;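 note: antibodies incubated with cells for 15-30 min on ice, bound antibody detected through a secondary F(ab′)2 by flow cytometry, with parental HEK293 cells tested in parallel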
[5] = biological target: T2, full length human PD-1 on HEK293/hPD-1 …; assay: FACS dose response, HEK293/hPD-1 cells
[6] = biological target: T4, recombinant human PD-1 dimer expressed with a C-terminal mouse IgG2a Fc tag (human); assay: competition ELISA: 1.5 nM hPD-1-mFc to coated hPD-L1-hFc
T4 construct: also called hPD-1-mFc

[7] = biological target: T4, recombinant human PD-1 dimer expressed …; assay: competition ELISA: 100 pM hPD-1-mFc to coated hPD-L2-hFc
[8] = biological target: T5, dimeric biotinylated human PD-1 protein with a C-terminal human Fc tag (human, biotinylated (sites not given)); assay: competition ELISA: 200 pM biot-hPD-1-hFc to coated hPD-L1-mFc
T5 construct: also called biot-hPD-1-hFc

[9] = biological target: T4, recombinant human PD-1 dimer expressed …; assay: BLI Octet: 100 nM hPD-1-mFc + 500 nM mAb to captured hPD-L1-hFc
[10] = biological target: T4, recombinant human PD-1 dimer expressed …; assay: competition ELISA: 1.5 nM hPD-1-mFc to coated hPD-L1-hFc; * below theoretical bottom 7.5E-10 M
[11] = biological target: T5, dimeric biotinylated human PD-1 protein …; assay: competition ELISA: 200 pM biot-hPD-1-hFc to coated hPD-L1-mFc; * below theoretical bottom 1.0E-10 M
[12] = biological target: T1, monkey PD-1 with mFc; assay: SPR, captured mAb, 25 C;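 note: purified anti-PD-1 antibodies tested on Biacore 4000 or T200 instruments, rate constants obtained via 1:1 binding model fit, with KD as kd/ka and half-life as ln2/(60·kd)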
[13] = biological target: T1, monkey PD-1 with mFc; assay: SPR, captured mAb, 37 C;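 note: Real-time Biacore surface plasmon resonance biosensor readout of PD-1 reagent binding to purified anti-PD-1 monoclonal antibodies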
[14] = biological target: T6, recombinant human PD-1 expressed with a C-terminal human IgG1 Fc tag (human); assay: SPR Biacore 3000: 100 nM hPD-1.hFc + 500 nM mAb to captured hPD-L1.mFc;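 note: inhibition study with anti-PD-1 mAbs, SPR responses tracked in real time and read at the close of each step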
T6 construct: also called hPD-1-hFc; hPD1-hFc

[15] = biological target: T7, recombinant human PD-L1 expressed with a C-terminal mouse IgG2a Fc tag (human); assay: SPR Biacore 3000: 500 nM mAb alone (no hPD-1.hFc) over captured hPD-L1.mFc surface, control
T7 construct: also called hPD-L1-mFc; hPD-L1.mFc

[16] = biological target: T3, PD-1 chimera: extracellular domain of …; assay: cell-based or functional assay; remark: listed apart in the source
[17] = biological target: T2, full length human PD-1 on HEK293/hPD-1 …; assay: FACS dose response, HEK293/hPD-1 cells; remark: listed apart in the source
[18] = biological target: T8, recombinant human PD-1 expressed with a C-terminal myc-myc-hexahistidine tag (human); assay: SPR (Biacore), mAb captured, hPD-1-MMH injected, 25 C;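 note: rate constants obtained by fitting sensorgrams to a 1:1 binding model, KD derived as kd/ka and half-life as ln2/(60·kd) in minutes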
T8 construct: also called hPD-1-MMH; human PD-1-MMH

| ratio of MFI HEK293/hPD-1 to HEK293 parental cells [2] | Concentration (M) of Antibody at 150% activation [3] [M] | Emax mean [%] @ 100 nM [3] [%] | MFI [4] [MFI] | EC50 [5] [nM] | Max Geom. Mean MFI @ 100 nM [5] [MFI] | % blocking at 200 nM antibody [6] [%] | % blocking at 50 nM antibody [8] [%] | IC50 [10] [nM] | IC50 [11] [nM] | 100 nM Monkey PD-1-mFc Bound (RU) [12] [RU] | Kd [12] [nM] | koff [12] [s⁻¹] | kon [12] [M⁻¹ s⁻¹] | t1/2 [12] [min] | 100 nM Monkey PD-1-mFc Bound (RU) [13] [RU] | Kd [13] [nM] | koff [13] [s⁻¹] | kon [13] [M⁻¹ s⁻¹] | t1/2 [13] [min] | Binder | also measured |
| --- | --- | --- | --- | --- | --- | --- | --- | --- | --- | --- | --- | --- | --- | --- | --- | --- | --- | --- | --- | --- | --- |
| – | – | – | – | – | – | – | – | – | – | – | – | – | – | – | – | – | – | – | – | H4H9008P (antibody, human IgG4 S228P, kappa, V domains shown) VH: EVQLVESGGGLVRPGGSLRLSCAASGFTFSTYAMAWVRQTPGKGLEGVSAIGGSGDSTYYVDSVKGRFTISRDNSKSTLFLQMNSLRAEDTAVYYCVKVRNYDGSFDIWGQGTMVTVSS VL: not shown | Emax, AP1-Luc signal at 100 nM antibody (% of signal without anti-PD-1 antibody) [1]: 150% |
| 78.1 | 7.99e-10 | 239 | 23400 | 0.0698 | 20900 | 93 | 100 | 0.68 | 0.073 | – | – | – | – | – | – | – | – | – | – | H2aM7798N (antibody, V domains shown, human variable regions, mouse IgG2a Fc; also called H2M7798N) VH: EVQLLESGGVLVQPGGSLRLSCAASGFTFSNFGMTWVRQAPGKGLEWVSGISGGGRDTYFADSVKGRFTISRDNSKNTLYLQMNSLKGEDTAVYYCVKWGNIYFDYWGQGTLVTVSS VL: DIQMTQSPSSLSASVGDSITITCRASLSINTFLNWYQQKPGKAPNLLIYAASSLHGGVPSRFSGSGSGTDFTLTIRTLQPEDFATYYCQQSSNTPFTFGPGTVVDFR | % blocking at 100 nM antibody [7]: 100%; IC50 [7]: 0.13 nM; % Blocking [9]: 86%; binding of the mixture (nm) [9]: 0.01 nm |
| 69 | 2.62e-09 | 202 | 10100 | 0.209 | 32400 | 98 | 96 | 0.51 | 0.066 | 95 | 0.818 | 0.000166 | 203000 | 70 | 81 | 2.44 | 0.000749 | 307000 | 15 | H4xH9034P (antibody, V domains shown, human IgG4 Fc with 2 or more amino acid changes (US20100331527); also called H4xH9034P2) VH: EVQLVESGGGVVRPGGSLRLSCTASGFTFDDYGMSWVRQAPGKGLEWISGIGWTGGRSSYADSVRGRFTISRDNAKNSLYLQMNSLGAEDTALYYCARDRQWLVQWYFDYWGQGTLVTVSS VL: not shown | % Blocking [14]: 105%; binding of the mixture (RU) [14]: -5 RU; 500 nM of anti-PD-1 monoclonal antibody (RU) [15]: -4 RU |
| 70.8 | – | 138 | 7200 | 0.668 | 33700 | 67 | – | – | – | 115 | 0.754 | 0.000184 | 243000 | 63 | 84 | 2.29 | 0.00113 | 494000 | 10 | H4xH9048P2 (antibody, V domains shown, human IgG4 Fc with 2 or more amino acid changes (US20100331527)) VH: QVQLVQSGAEVKRPGSSVKVSCKVSGVTFRNFAIIWVRQAPGQGLEWMGGIIPFFSAANYAQSFQGRVTITPDESTSTAFMELASLRSEDTAVYYCAREGERGHTYGFDYWGQGTLVTVSS VL: not shown | IC50 [6]: 3.3 nM; % blocking at 100 nM antibody [7]: 98%; IC50 [7]: 0.14 nM |
| – | – | – | – | – | – | – | – | – | – | – | – | – | – | – | – | – | – | – | – | H4H9048P2 (antibody, human IgG4 S228P, kappa, V domains shown, human IgG4 Fc) VH: QVQLVQSGAEVKRPGSSVKVSCKVSGVTFRNFAIIWVRQAPGQGLEWMGGIIPFFSAANYAQSFQGRVTITPDESTSTAFMELASLRSEDTAVYYCAREGERGHTYGFDYWGQGTLVTVSS VL: not shown | Emax mean [%] @ 100 nM [16]: 134%; EC50 [17]: 1.6 nM; Max Geom. Mean MFI @ 100 nM [17]: 39800 MFI |
| – | – | – | – | – | – | – | – | – | – | – | – | – | – | – | – | – | – | – | – | H4xH9119P2 (antibody, human IgG4, V domains shown, H4xH: modified human IgG4 Fc) VH: EVQLVESGGGLVQPGRSLRLSCAASGFTFEDYAMHWVRQAPGKGLEWVSGIGWSNVKIGYADSVKGRFTISRDNVRNSLYLQMNSLRTEDTAFYYCVKAYTSMLTLYFDYWGQGTLVTVSS VL: not shown | Emax, AP1-Luc signal at 100 nM antibody (% of signal without anti-PD-1 antibody) [1]: 163%; Kd [18]: 15.6 nM; koff [18]: 0.00122 s⁻¹; kon [18]: 78400 M⁻¹ s⁻¹; t½ [18]: 9.5 min |
| 84 | 1.11e-08 | 163 | 9140 | 0.348 | 37800 | 78 | 96 | 0.2 | 0.082 | 83 | 1.05 | 0.000172 | 163000 | 67 | 40 | 3.17 | 0.000885 | 279000 | 13 | H4xH9119P2 (antibody, V domains shown, human IgG4 Fc with 2 or more amino acid changes (US20100331527)) VH: EVQLVESGGGLVQPGRSLRLSCAASGFTFEDYAMHWVRQAPGKGLEWVSGIGWSNVKIGYADSVKGRFTISRDNVRNSLYLQMNSLRTEDTAFYYCVKAYTSMLTLYFDYWGQGTLVTVSS VL: not shown | % Blocking [14]: 105%; binding of the mixture (RU) [14]: -5 RU; 500 nM of anti-PD-1 monoclonal antibody (RU) [15]: -5 RU |
| 168 | – | 121 | 49800 | – | – | – | 60 | – | – | – | – | – | – | – | – | – | – | – | – | H2aM7796N (antibody, V domains shown, human variable regions, mouse IgG2a Fc; also called H2M7796N) VH: QVQLVESGGGVVQPGRSLRLSCAASGFTFSSYGMHWVRQAPGKGLEWVAIIWSDGDSEYNLDSVKGRFTISRDNSKNTLYLQMNSLRVEDSAVYYCARDRDLEDIWGQGTMVTVSS VL: DIQMTQSPSSLSASVGDRVTITCRASQGIRNDLGWYQQKPGKAPKRLIYAASNLQSGVPSRFSGSGSGTEFTLTISSLQPEDFATYYCLQHNSYPLTFGGGTKVEIK | EC50 [17]: 4.81 nM; Max Geom. Mean MFI @ 100 nM [17]: 14100 MFI; IC50 [8]: 1.3 nM; % Blocking [9]: 129%; binding of the mixture (nm) [9]: -0.02 nm |
| 91.7 | 1.2e-09 | 227 | 9920 | 0.115 | 28700 | 99 | 95 | 0.62 | 0.08 | 78 | 0.46 | 9.96e-05 | 216000 | 116 | 40 | 1.7 | 0.000623 | 367000 | 19 | H4xH9035P (antibody, V domains shown, human IgG4 Fc with 2 or more amino acid changes (US20100331527); also called H4xH9035P2) VH: EVQLVESGGRVVRPGGSLRLSCAASGFTFDDYGMSWVRQLPGKGLEWVAGISWNDGKTVYAESVKGRFIISRDNAKNSLHLEMNSLRAEDTALYYCARDWQYLIDRYFDFWGQGTLVTVSS VL: not shown | % Blocking [14]: 104%; binding of the mixture (RU) [14]: -4 RU; 500 nM of anti-PD-1 monoclonal antibody (RU) [15]: -3 RU |
